Measurements taken from the supplement of paper PMC9170038.

System: MS2 coat protein
Assay: apparent KD of MS2 coat protein; designed switch direction (-1 OFF switch, 1 ON switch): -1; higher = weaker reporter binding
Method in brief: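 Designed RNA switches sharing common flanks were transcribed on Illumina chips by stalled E. coli RNA polymerase. They were titrated with SNAP-549-labelled MS2 coat protein, from 0.7 or 1.5 nM doubling to 3 µM, in Tris-HCl pH 7.5 buffer with KCl, MgCl2, BSA, DTT, tRNA and Tween-20. Titrations ran without input, with 200 uM small-molecule ligand, or with an oligonucleotide input. The apparent KD of each design is the median over its clusters, after curve-fitting of normalised cluster fluorescence.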

[1] = input ligand: microRNA oligo, concentration not stated
[2] = Eterna round: R95, input ligand: FMN 200 uM
[3] = Eterna round: R95, input ligand: microRNA oligo, concentration not stated
[4] = Eterna round: R95, input ligand: none

| Sequence | apparent KD of MS2 coat protein (input ligand: FMN 200 uM) [nM] | apparent KD of MS2 coat protein [1] [nM] | apparent KD of MS2 coat protein (input ligand: none) [nM] | apparent KD of MS2 coat protein [2] [nM] | apparent KD of MS2 coat protein [3] [nM] | apparent KD of MS2 coat protein [4] [nM] |
| --- | --- | --- | --- | --- | --- | --- |
| AAAAAAUAAAAAACAAGCUACAUGAGGAUCACCCAUGUUACAAAAAUAAAAUAAAAAUAAAAUAAAAGUAAAAUGGG [Sensor V2: 75 Random] (Eterna round: R96, puzzle: Sensor v2, turn-off variant) | 145 | 78.2 | 98.8 | – | – | – |
| AAAAAGAGAGGAUAUACAACAAAACAAAACAAAACAAACACACAUGAGGAUCACCCAUGUAGAAGGCUCGAAAA [Exclusion 2 #2] (puzzle: Exclusion 2) | – | – | – | 25.1 | 16.5 | 19.3 |
| AAAAAGGCAGGAUAUGCAUACACACAAAAAAAAAAACUGGGACAUGAGGAUCACCCAUGUAGAAGGGCCAAAAA [Dora Explored 8 - Jieux - Exclusion 2] (Eterna round: R96, puzzle: Exclusion 2) | 60.1 | 53.7 | 54.1 | – | – | – |
| AAAACACAUGAGGAUCACCCAUGUGAGGAUAUGUUAGUUUCGGCGAAAGCCGAAAUUAACAGAAGGCACAGAAA [JR_Exclusion1_Sub023] (puzzle: Exclusion 1) | – | – | – | 44.7 | 39.4 | 40.1 |
| AAAACCAGAGGAUAUGCGCAUAGAUCAGACUUUGUUUCUGAACAUGAGGAUCACCCAUGUAGAAGGCUGUAAAA [Ex2 #82] (Eterna round: R97, puzzle: Exclusion 2) | 27.3 | – | 20.5 | – | – | – |
| AAAACUAACACGAAAGUGUUAGUAAAAUAAGCUUGUGGUACAUGAGGAUCACCCAUGUCCUCAUAAGCUCGUCUUAU [Mat - Sensor v3 - Turn-off var 2 - D44] (puzzle: Sensor v3, turn-off variant 2) | – | – | – | 25.1 | 67.7 | 24.5 |
| AAAAGGCUAGGAUAUACAUGAGGAUCACCCAUGUGUACUGGACAUGCGGUAUGCGUAUGUAGAAGGAGUAUAAA [Inaisor] (puzzle: Exclusion 3) | – | – | – | – | 14.2 | – |
| AAAAGGUGAGGAUAUUCAAGGAAAGACAUGAGGAUCACCCAUGUAAGAAAGGAAAAGGGAGGAGAAGGUGUGAAAA [salish99_ex5_r4_136] (Eterna round: R97, puzzle: Exclusion 5) | 62.1 | – | 60.2 | – | – | – |
| AAAAUAAUAAGUUUACGAACAUUUAGAAAAAGGGAUCCAACAUGAGGAUCACCCAUGUAUUAUCAGCAUAAACCCUA [JR_Sensorv2_tov2_Sub1270] (Eterna round: R96, puzzle: Sensor v2, turn-off variant 2) | 341 | 270 | 360 | – | – | – |
| AAAAUUGGUGAGGAUAUGCAGAUGCGCAAUGUCGCAGAAGGCACCACAUGAGGAUCACCCAUGUGUCCUCUAAA [EX6 A.19] (Eterna round: R97, puzzle: Exclusion 6) | 34 | – | 19.8 | – | – | – |
| AAACAAUCCCGAGGAUAUCGGCUAUUAGCAUGCCGAGAAGGCGGCGCGCAUCGACAUGAGGAUCACCCAUGUGUCCGCUCGGUU [Eternabot solution 31] (Eterna round: R96, puzzle: Exclusion NG 1) | 20.8 | 13.6 | 21.6 | – | – | – |
| AAACCCUCCGUAAGGAUAUGCGCAGGUAAACCGCUGUAGAAGGUACAUGAGGAUCACCCAUGUUGGACCGUGGA [Eternabot (Original) Solution 35] (Eterna round: R97, puzzle: Brourd's mod of Exclusion 4) | 36 | – | 29 | – | – | – |
| AAACCGCAAGGAUAUUGUGGCGCUGACAUGAGGAUCACCCAUGUGGUGCUAGUCCCGCUGCGAGAAGGUGUGUAAA [Enesedrave] (puzzle: Exclusion 5) | – | – | – | – | 12.3 | – |
| AAACCUGAAGUCAGGAUAUGAAGUAUCACUGUACUUCAGAAGGGACUUGAGGAUCACCCAAGUAGCCGUGAGGC [jl-bmx4.4.67 ViennaUCT mod] (Eterna round: R97, puzzle: Brourd's mod of Exclusion 4) | 116 | – | 28.8 | – | – | – |
| AAACCUGGAGUUAGGAUAUGAAGUAUCACUGCGCUUCAGAAGGGACUUGAGGAUCACCCAAGUAAAAGUUAAAA [Teredi] (Eterna round: R97, puzzle: Brourd's mod of Exclusion 4) | 20.8 | – | 18.5 | – | – | – |
